The experiment deals with human recombinant TGFβ1 (Peprotech) (human) (UniProt P01137). The experiment can be described thus: cell-based or functional assay.
Chain of human recombinant TGFβ1 (Peprotech) (human) (P01137 279-390 limits assumed): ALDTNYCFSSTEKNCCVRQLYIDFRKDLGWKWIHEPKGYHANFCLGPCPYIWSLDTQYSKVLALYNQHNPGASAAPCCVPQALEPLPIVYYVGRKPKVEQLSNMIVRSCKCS

For the substance “BM3, truncated version of TGFβRII (from UniProt P37173 23-199) (receptor)”, the fold-change in IFNy secretion, sub-optimal aCD3/aCD28 beads (1:300) + 10 ng/ml TGFβ versus beads alone stood at 0.7 fold and the fold-change in IFNy secretion, αCD3/αCD28 beads (1:100) + 10 ng/ml TGFβ versus beads alone turned out to be 0.87 fold.
For “BM2, ectodomain of TGFβ receptor II (TGFβRII) with transmembrane and intracellular domains of CD137 (from UniProt P37173 23-166; Q07011 187-255)” the same measures were 1.9 fold and 1.2 fold.

(Values after patent EP4509522A1.)
